Source: patent US20140206609A1 (Sanofi, published 2014)
*1 amine or outer side, *2 acyl side, *3 side chain or, on linkers, in order; H or OH if unused. Where no end group is shown, it is not given here. Side-chain parts run from the residue outwards. [ ]: non-standard residue; d: D form. The star is where a group is joined. γGlu = O=C(O)[C@H](CCC(=O)[*:2])N[*:1]; Palmitoyl = CCCCCCCCCCCCCCCC(=O)*; Aib = CC(C)(N)C(=O)O

T1: human GIP receptor (human, UniProt P48546 22-466)
T1 sequence (looked up): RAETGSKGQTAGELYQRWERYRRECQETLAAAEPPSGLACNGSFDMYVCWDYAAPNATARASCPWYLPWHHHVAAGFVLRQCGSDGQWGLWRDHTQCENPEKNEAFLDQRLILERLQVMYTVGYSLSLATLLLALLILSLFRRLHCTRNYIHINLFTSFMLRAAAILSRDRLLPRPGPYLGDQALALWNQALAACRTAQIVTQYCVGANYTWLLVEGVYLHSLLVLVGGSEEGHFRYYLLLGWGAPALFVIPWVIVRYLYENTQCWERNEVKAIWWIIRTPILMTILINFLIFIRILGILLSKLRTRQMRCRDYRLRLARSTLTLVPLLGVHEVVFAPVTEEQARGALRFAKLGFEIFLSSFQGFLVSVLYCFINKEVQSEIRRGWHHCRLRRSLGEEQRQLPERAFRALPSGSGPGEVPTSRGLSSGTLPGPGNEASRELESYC

B1: SEQ ID NO: 10 (peptide)
peptide: Y[Aib]EGTFTSDLSIQK([γGlu-Palmitoyl])ESRAAQDFIEWLKAGGPSSGAPPPS-NH2
modifications: N-terminus assumed
SMILES: CCCCCCCCCCCCCCCC(=O)N[C@@H](CCC(=O)NCCCC[C@H](NC(=O)[C@H](CCC(N)=O)NC(=O)[C@@H](NC(=O)[C@H](CO)NC(=O)[C@H](CC(C)C)NC(=O)[C@H](CC(=O)O)NC(=O)[C@H](CO)NC(=O)[C@@H](NC(=O)[C@H](Cc1ccccc1)NC(=O)[C@@H](NC(=O)CNC(=O)[C@H](CCC(=O)O)NC(=O)C(C)(C)NC(=O)[C@@H](N)Cc1ccc(O)cc1)[C@@H](C)O)[C@@H](C)O)[C@@H](C)CC)C(=O)N[C@@H](CCC(=O)O)C(=O)N[C@@H](CO)C(=O)N[C@@H](CCCNC(=N)N)C(=O)N[C@@H](C)C(=O)N[C@@H](C)C(=O)N[C@@H](CCC(N)=O)C(=O)N[C@@H](CC(=O)O)C(=O)N[C@@H](Cc1ccccc1)C(=O)N[C@H](C(=O)N[C@@H](CCC(=O)O)C(=O)N[C@@H](Cc1c[nH]c2ccccc12)C(=O)N[C@@H](CC(C)C)C(=O)N[C@@H](CCCCN)C(=O)N[C@@H](C)C(=O)NCC(=O)NCC(=O)N1CCC[C@H]1C(=O)N[C@@H](CO)C(=O)N[C@@H](CO)C(=O)NCC(=O)N[C@@H](C)C(=O)N1CCC[C@H]1C(=O)N1CCC[C@H]1C(=O)N1CCC[C@H]1C(=O)N[C@@H](CO)C(N)=O)[C@@H](C)CC)C(=O)O
B2: SEQ ID NO: 39 (peptide)
peptide: Y[Aib]EGTFTSDLSIQK([γGlu-Palmitoyl])ESRAAQEFIEWLKAGGPSSGAPPPS-NH2
modifications: N-terminus assumed
SMILES: CCCCCCCCCCCCCCCC(=O)N[C@@H](CCC(=O)NCCCC[C@H](NC(=O)[C@H](CCC(N)=O)NC(=O)[C@@H](NC(=O)[C@H](CO)NC(=O)[C@H](CC(C)C)NC(=O)[C@H](CC(=O)O)NC(=O)[C@H](CO)NC(=O)[C@@H](NC(=O)[C@H](Cc1ccccc1)NC(=O)[C@@H](NC(=O)CNC(=O)[C@H](CCC(=O)O)NC(=O)C(C)(C)NC(=O)[C@@H](N)Cc1ccc(O)cc1)[C@@H](C)O)[C@@H](C)O)[C@@H](C)CC)C(=O)N[C@@H](CCC(=O)O)C(=O)N[C@@H](CO)C(=O)N[C@@H](CCCNC(=N)N)C(=O)N[C@@H](C)C(=O)N[C@@H](C)C(=O)N[C@@H](CCC(N)=O)C(=O)N[C@@H](CCC(=O)O)C(=O)N[C@@H](Cc1ccccc1)C(=O)N[C@H](C(=O)N[C@@H](CCC(=O)O)C(=O)N[C@@H](Cc1c[nH]c2ccccc12)C(=O)N[C@@H](CC(C)C)C(=O)N[C@@H](CCCCN)C(=O)N[C@@H](C)C(=O)NCC(=O)NCC(=O)N1CCC[C@H]1C(=O)N[C@@H](CO)C(=O)N[C@@H](CO)C(=O)NCC(=O)N[C@@H](C)C(=O)N1CCC[C@H]1C(=O)N1CCC[C@H]1C(=O)N1CCC[C@H]1C(=O)N[C@@H](CO)C(N)=O)[C@@H](C)CC)C(=O)O

Columns and labels:
Experiment in all cases: cell-based or functional assay
[1] = molecular target: T1, human GIP receptor
[2] = molecular target: human glucagon receptor (human, UniProt P47871 26-477)
[3] = molecular target: human GLP-1 receptor (human, UniProt P43220 24-463)

Sequence of human glucagon receptor (P47871 26-477): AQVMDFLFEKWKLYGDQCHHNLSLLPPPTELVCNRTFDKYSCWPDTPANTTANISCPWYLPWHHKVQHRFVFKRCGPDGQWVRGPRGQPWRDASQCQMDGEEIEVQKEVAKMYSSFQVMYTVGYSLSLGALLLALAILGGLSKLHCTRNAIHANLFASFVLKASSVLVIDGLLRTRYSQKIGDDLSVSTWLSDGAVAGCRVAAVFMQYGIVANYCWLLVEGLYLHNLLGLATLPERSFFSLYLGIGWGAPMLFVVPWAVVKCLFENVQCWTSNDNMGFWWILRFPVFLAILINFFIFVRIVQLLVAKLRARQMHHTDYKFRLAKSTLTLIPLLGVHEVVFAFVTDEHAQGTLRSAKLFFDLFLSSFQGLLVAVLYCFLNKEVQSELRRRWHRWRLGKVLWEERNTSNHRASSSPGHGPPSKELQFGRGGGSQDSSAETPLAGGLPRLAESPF

Binder | EC50 hGIP R [pM] [1] [pM] | EC50 hGLUC R [pM] [2] [pM] | EC50 hGLP-1 R [pM] [3] [pM]
B1 | 15.1 | 40000 | 13.2
B2 | 8.5 | 19300 | 4.3
